Here are results for six molecules from patent US20170321220A1 (INDIANA UNIVERSITY RESEARCH AND TECHNOLOGY, published 2017).

Test [1] deals with P22 procapsid (PC) after removal of the Dec-binding sub-population (bacteriophage P22 (filing: P22 VLP from Salmonella typhimurium)) (UniProt P26747). Kind of test: SEC-MALS, number of Dec monomers calculated from the difference between bound and control particle molecular weight; PC control row 0±43.
Test [2] has the same target. Kind of test: SEC retention shift after incubation with DecWT; PC control row 0±0.001.
The target is the same in test [3]. Put plainly: SEC-QELS, particle radius of hydration after incubation with DecWT; PC control row 26.4±0.5.
For test [4] the target is unchanged. Put plainly: SEC-MALS, particle molecular weight after incubation with DecWT; PC control row 22.8±0.7.
Test [5] deals with T1, EX P22 VLP (expanded form of the bacteriophage P22 virus-like particle) (bacteriophage P22 (filing: P22 VLP from …, UniProt P26747 2-430)). Kind of test: SEC retention shift of P22 upon Dec binding; EX control row 0±0.008.
Test [6] addresses T1, EX P22 VLP (expanded form of the …). Put plainly: SPR, EX P22 immobilised, two-site global fit; site 2, column 'Ka2 (M-1 s-1)'.
Test [7] has the same target. Kind of test: SEC-MALS, particle molecular weight with Dec bound; EX control row 20.5±0.2.
Test [8] has the same target. Put plainly: SEC-QELS, particle radius of hydration with Dec bound; EX control row 28.4±0.7.
Test [9] has the same target.
Test [10] has the same target. Kind of test: SPR, EX P22 immobilised, two-site global fit; site 1, column 'Kd1 (s-1 x 10-4)'.
Test [11] shares this target. This is another data set of the same source.
The target is the same in test [12]. Put plainly: SPR, single-site fit.
Test [13] has the same target. Put plainly: SPR, EX P22 immobilised, two-site fit, tighter site.
The target is the same in test [14]. Kind of test: SPR, EX P22 immobilised, two-site fit, low-affinity site.
The target is the same in test [15]. Kind of test: SPR, EX P22 immobilised, two-site global fit; site 2, column 'KD2 (nM)'.
Test [16] has the same target. Put plainly: SPR, EX P22 immobilised, single-site fit of the low concentrations.
Test [17] has the same target. Put plainly: SPR, EX P22 immobilised, two-site fit, high-affinity site.
Test [18] has the same target. Kind of test: SPR, extended 4 h dissociation, two independent sites, weak site.
For test [19] the target is unchanged. Kind of test: SPR, extended 4 h dissociation, two independent sites, tight site.
Test [20] has the same target. Put plainly: SPR, from the fitted parameters.
The target is the same in test [21]. Kind of test: SPR, two-site fit with the tight-site kd fixed at the value of the 4 h dissociation.

Read-outs that look alike come from different tables or passages of the source.

Chain of P22 procapsid (PC) after removal of the Dec-binding sub-population (bacteriophage P22 (filing: P22 VLP from Salmonella typhimurium)) (P26747 2-430, chain 1 of 2): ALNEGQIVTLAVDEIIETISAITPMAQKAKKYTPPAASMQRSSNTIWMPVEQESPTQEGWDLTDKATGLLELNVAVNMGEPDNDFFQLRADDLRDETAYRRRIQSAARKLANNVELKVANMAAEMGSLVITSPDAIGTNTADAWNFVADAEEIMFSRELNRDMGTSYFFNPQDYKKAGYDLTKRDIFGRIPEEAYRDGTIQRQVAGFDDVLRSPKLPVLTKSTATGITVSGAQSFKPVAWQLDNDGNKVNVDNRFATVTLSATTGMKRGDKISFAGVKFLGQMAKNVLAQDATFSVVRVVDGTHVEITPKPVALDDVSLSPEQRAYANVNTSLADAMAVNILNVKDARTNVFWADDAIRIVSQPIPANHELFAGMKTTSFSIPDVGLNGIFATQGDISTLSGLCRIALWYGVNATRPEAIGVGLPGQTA
Chain of P22 procapsid (PC) after removal of the Dec-binding sub-population (bacteriophage P22 (filing: P22 VLP from Salmonella typhimurium)) (P26748 whole entry, chain 2 of 2, further chain): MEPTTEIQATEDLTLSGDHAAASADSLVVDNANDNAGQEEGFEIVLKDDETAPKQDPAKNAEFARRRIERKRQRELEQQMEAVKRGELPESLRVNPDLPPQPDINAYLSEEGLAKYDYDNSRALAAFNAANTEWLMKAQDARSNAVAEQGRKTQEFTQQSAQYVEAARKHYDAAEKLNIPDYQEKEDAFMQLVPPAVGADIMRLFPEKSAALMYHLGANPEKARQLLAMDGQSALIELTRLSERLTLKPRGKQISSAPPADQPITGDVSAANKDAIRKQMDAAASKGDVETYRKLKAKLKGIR
T1 sequence (P26747 2-430 limits assumed): as the sequence (P26747 2-430, chain 1 of 2) above

Consider DecWT, for which the Dec monomers in test [1] is 24 monomers. For the same molecule, in test [2], the retention shift stood at 0.03 min. The molecule further gave a Rh (nm) in test [3] of 26.6 nm. Moreover, the MW (MDa) in test [4] came out at 23.2 MDa.

B1: DecΔ11 (Dec lacking the first 11 N-terminal residues) (other)
chain: MGSSHHHHHHSQDPLYKDADGVYVSALPIKAIKYANDGSANAEFDGPYADQYMSAQTVAVFKPEVGGYLFRSQYGELLYMSKTAFEANYTSASGSVANAETADKLSTARTITLTGAVTGSASFDGSANVTIETTSGS
In the case of B1, the “retention shift” value in test [5] turned out to be 0.595 min. The results for the on-rate constant (kon) in test [6] and in [9] were 38300 M⁻¹ s⁻¹ and 9200 M⁻¹ s⁻¹, respectively. Moreover, in test [7], the “MW (MDa)” value turned out to be 23.6 MDa. Besides, the “Rh (nm)” value in [8] is 30.1 nm. Moreover, the koff in test [9] turned out to be 0.0044 s⁻¹; in test [10], 4.4e-05 s⁻¹.

B2: DecΔ20 (Dec lacking the first 20 N-terminal residues) (other)
chain: MGSSHHHHHHSQDPVSALPIKAIKYANDGSANAEFDGPYADQYMSAQTVAVFKPEVGGYLFRSQYGELLYMSKTAFEANYTSASGSVANAETADKLSTARTITLTGAVTGSASFDGSANVTIETTSGS
B2 showed a Kd in test [11] of 3500 nM. Moreover, the “fold reduction in KD from the high-affinity site of DecWT” value in test [12] was more than 300 fold. Also, in [9], the affinity, expressed as Kd, was 3450 nM and the koff came out at 0.00024 s⁻¹.

B3: DecmCD40L (Dec fused at its C-terminus to the soluble region of murine CD40L) (ligand)
chain: MGSSHHHHHHSQDPMANPNFTPSWPLYKDADGVYVSALPIKAIKYANDGSANAEFDGPYADQYMSAQTVAVFKPEVGGYLFRSQYGELLYMSKTAFEANYTSASGSVANAETADKLSTARTITLTGAVTGSASFDGSANVTIETTSGSELQRGDEDPQIAAHVVSEANSNAASVLQWAKKGYYTMKSNLVMLENGKQLTVKREGLYYVYTQVTFCSNREPSSQRPFIVGLWLKPSSGSERILLKAANTHSSSQLCEQQSVHLGGVFELQAGASVFVNVTEASQVIHRVGFSSFGLLKL
For B3, the kon in test [6] was 4820 M⁻¹ s⁻¹; in test [13] it was 6440 M⁻¹ s⁻¹. The Kd in [13] turned out to be 30.8 nM; in test [14] it was 1420 nM. Also, the koff in test [13] came to 0.0002 s⁻¹; in test [9], 0.0068 s⁻¹.

B4: DecSelf (Dec fused at its C-terminus to the 21 amino acid CD47 mimic Self-peptide) (other)
chain: MGSSHHHHHHSQDPMANPNFTPSWPLYKDADGVYVSALPIKAIKYANDGSANAEFDGPYADQYMSAQTVAVFKPEVGGYLFRSQYGELLYMSKTAFEANYTSASGSVANAETADKLSTARTITLTGAVTGSASFDGSANVTIETTSGSELGNYTCEVTELTREGETIIELK
Regarding B4, in test [5], the “retention shift” value was 0.5 min. Moreover, the results for the Kd in [15], in [13] and in test [14] were 146 nM, 18.3 nM and 146 nM, respectively. The on-rate constant (kon) worked out at 2190 M⁻¹ s⁻¹ in [6] and 11200 M⁻¹ s⁻¹ in [13]. Moreover, the “MW (MDa)” value in test [7] worked out at 22.6 MDa. In addition, the koff worked out at 0.0002 s⁻¹ in [13] and 0.00323 s⁻¹ in test [9]. Also, the “Rh (nm)” value in test [8] stood at 29.6 nm.

B5: DecWT (other)
chain: MGSSHHHHHHSLVPRGSQDPMANPNFTPSWPLYKDADGVYVSALPIKAIKYANDGSANAEFDGPYADQYMSAQTVAVFKPEVGGYLFRSQYGELLYMSKTAFEANYTSASGSVANAETADKLSTARTITLTGAVTGSASFDGSANVTIETTSGS
notes: also called Dec with an N-terminal his-tag
For B5, in test [5], the “retention shift” value worked out at 0.619 min. The Kd in test [16] is 24 nM; in test [17], 9.2 nM; in test [14] it was 1500 nM; in test [9], 446 nM; in test [21], 0.255 nM. The off-rate constant (koff) amounted to 0.00033 s⁻¹ in test [16]; 0.000106 s⁻¹ in test [17]; 0.00095 s⁻¹ in test [18]; 3.2e-06 s⁻¹ in [19]; 0.00298 s⁻¹ in [14]; 0.00182 s⁻¹ in test [9]. In addition, the results for the kon in test [16], in [17] and in test [14] were 13800 M⁻¹ s⁻¹, 11500 M⁻¹ s⁻¹ and 1980 M⁻¹ s⁻¹, respectively. The “MW (MDa)” value in test [7] is 23 MDa. Also, in [20], the “half-life of binding at the tight-site” value was not below 60 h. The “Rh (nm)” value in [8] came to 29.6 nm.
